Measurements taken from US20260125454A1 (SHANGHAI JUNSHI BIOSCIENCES, published 2026).
Positions count from the first letter of the chain named.

B1: hu184 (antibody, V domains shown)
VH: QVQLVQSGAEVKKPGASVKVSCKTSGYTFTDYNMHWVRQAPGQRLEWMGYISPYNAGTAYNQKFKFRVTLTVDTSSSTAYMELSSLRSEDTAVYYCAREGLGGYWGQGTLVTVSS
VL: DIVLTQSPASLAVSPGQRATITCKASQNIDYDGYAYLNWYQQKPGQPPKVLIYSVFNLESGVPARFSGSGSGTDFTLTINPVEADDTANYYCQQSNEFPYTFGQGTKLEIK
notes: 3E5 HC-4/1A2 LC2-2
B2: hu213 (antibody, V domains shown)
VH: B1 VH with T24A, R44G, S52Y, A56G, G57H, A59V, K65R, F66N, S84R, E89D
VL: EIVLTQSPATLSLSPGERATLSCKASQNIDFDGYAYMNWYQQKPGQAPRVLIYSVFNLESGIPARFSGSGSGTDFTLTISSLEPEDFAVYYCQQSHEVPYTFGQGTKLEIK
notes: 3H10 HC-2/1F5 LC1-1
B3: hu148 (antibody, V domains shown)
VH: B1 VH with A56G
VL: B2 VL
notes: 3E5 HC-1/1F5 LC1-1
B4: hu187 (antibody, V domains shown)
VH: B1 VH
VL: B2 VL
notes: 3E5 HC-4/1F5 LC1-1
B5: hu202 (antibody, V domains shown)
VH: QVQLVQSGAEVKKPGASVKVSCKASGYTFTDYNMHWVRQAPGQGLEWMGYIYPYNGHTVYNQKFRNRVTMTVDTSSSTAYMELRSLRSDDTAVYYCAKEGLGGYWGQGTLVTVSS
VL: B1 VL with Y31F, L37M, N96H, F98V
notes: 3H10 HC-1/1F5 LC1-3
B6: hu42 (antibody, V domains shown)
VH: B5 VH with Y32F, G44R, H57D, T58V, K63N, R65T, M70L, R84S, D89E, K98R
VL: B2 VL with F31Y, M37L, H96N, V98F
notes: 1F5 HC-2/1A2 LC2-3
B7: hu97 (antibody, V domains shown)
VH: B1 VH with T24A, I51V, S52Y, A56G, T58S, F66S
VL: B2 VL with Q42H
notes: 2A2 HC-1/1F5 LC1-2
B8: hu135 (antibody, V domains shown)
VH: B5 VH with Y50N, G56A, H57G, R65N, M70L, R84S, S85R, K98R
VL: B2 VL
notes: 2B8 HC1-3/1F5 LC1-1
B9: hu6 (antibody, V domains shown)
VH: B5 VH with Y52F, H57V, T58A, Q62R, N66S, M70L, V72I, K98R
VL: B2 VL with Q42H
notes: 1B2 HC-1/1F5 LC1-2
B10: hu174 (antibody, V domains shown)
VH: B1 VH with T24A, R44G, A56G, S85R, E89D, A92V
VL: B2 VL
notes: 3E5 HC-3/1F5 LC1-1
B11: hu57 (antibody, V domains shown)
VH: B5 VH with Y32F, H57D, T58V, K63N, R65T, M70L, K98R
VL: B2 VL
notes: 1F5 HC-3/1F5 LC1-1
B12: hu55 (antibody, V domains shown)
VH: B5 VH with Y32F, H57D, T58V, K63N, R65T, M70L, K98R
VL: B2 VL with F31Y, M37L, H96N, V98F
notes: 1F5 HC-3/1A2 LC2-3
B13: hu161 (antibody, V domains shown)
VH: B1 VH with T24A, A56G
VL: B2 VL
notes: 3E5 HC-2/1F5 LC1-1
B14: hu83 (antibody, V domains shown)
VH: B1 VH with T24A, T30I, Y32F, S52Y, G57D, T58V, A59V, K63D, K65T, F66N
VL: B2 VL
notes: 1F5 HC-5/1F5 LC1-1
B15: hu159 (antibody, V domains shown)
VH: B1 VH with T24A, A56G
VL: B2 VL with F31Y, M37L, H96N, V98F
notes: 3E5 HC-2/1A2 LC2-3
B16: hu3 (antibody, V domains shown)
VH: B5 VH with Y52F, H57V, T58A, Q62R, N66S, M70L, V72I, K98R
VL: B2 VL with F31Y, M37L, H96N, V98F
notes: 1B2 HC-1/1A2 LC2-3
B17: hu198 (antibody, V domains shown)
VH: B5 VH
VL: B2 VL with F31Y, M37L, H96N, V98F
notes: 3H10 HC-1/1A2 LC2-3
B18: hu209 (antibody, V domains shown)
VH: B5 VH with M70L, K98R
VL: B1 VL with D85N
notes: 3H10 HC-2/1A2 LC2-1
B19: hu162 (antibody, V domains shown)
VH: B1 VH with T24A, A56G
VL: B2 VL with Q42H
notes: 3E5 HC-2/1F5 LC1-2
B20: hu122 (antibody, V domains shown)
VH: B5 VH with Y50N, H57G, R65N, M70L, K98R
VL: B2 VL
notes: 2B8 HC1-2/1F5 LC1-1
B21: hu31 (antibody, V domains shown)
VH: QVQLVQSGAEVKKPGASVKVSCKASGYTFIDFNMHWVRQAPGQRLEWMGYIYPYNGDVVYNQNFTNRVTLTVDTSSSTAYMELSSLRSEDTAVYYCAREGLGGYWGQGTLVTVSS
VL: B2 VL
notes: 1F5 HC-1/1F5 LC1-1
B22: hu109 (antibody, V domains shown)
VH: B5 VH with Y50N, H57G, R65N, M70L, R84S, S85R, K98R
VL: B2 VL
notes: 2B8 HC1-1/1F5 LC1-1
B23: hu133 (antibody, V domains shown)
VH: B5 VH with Y50N, G56A, H57G, R65N, M70L, R84S, S85R, K98R
VL: B2 VL with F31Y, M37L, H96N, V98F
notes: 2B8 HC1-3/1A2 LC2-3
B24: hu188 (antibody, V domains shown)
VH: B1 VH
VL: B2 VL with Q42H
notes: 3E5 HC-4/1F5 LC1-2
B25: hu211 (antibody, V domains shown)
VH: B5 VH with M70L, K98R
VL: B2 VL with F31Y, M37L, H96N, V98F
notes: 3H10 HC-2/1A2 LC2-3
B26: hu175 (antibody, V domains shown)
VH: B1 VH with T24A, R44G, A56G, S85R, E89D, A92V
VL: B2 VL with Q42H
notes: 3E5 HC-3/1F5 LC1-2
B27: hu19 (antibody, V domains shown)
VH: B21 VH with I30T, F32Y, Y52F, D57V, V58A, Q62R, N63K, T65R, N66S
VL: B2 VL with Q42H
notes: 1B2 HC-2/1F5 LC1-2
B28: hu200 (antibody, V domains shown)
VH: B5 VH
VL: B2 VL
notes: 3H10 HC-1/1F5 LC1-1
B29: hu149 (antibody, V domains shown)
VH: B1 VH with A56G
VL: B2 VL with Q42H
notes: 3E5 HC-1/1F5 LC1-2
B30: hu196 (antibody, V domains shown)
VH: B5 VH
VL: B1 VL with D85N
notes: 3H10 HC-1/1A2 LC2-1
B31: hu5 (antibody, V domains shown)
VH: B5 VH with Y52F, H57V, T58A, Q62R, N66S, M70L, V72I, K98R
VL: B2 VL
notes: 1B2 HC-1/1F5 LC1-1
B32: hu172 (antibody, V domains shown)
VH: B1 VH with T24A, R44G, A56G, S85R, E89D, A92V
VL: B2 VL with F31Y, M37L, H96N, V98F
notes: 3E5 HC-3/1A2 LC2-3
B33: hu18 (antibody, V domains shown)
VH: B21 VH with I30T, F32Y, Y52F, D57V, V58A, Q62R, N63K, T65R, N66S
VL: B2 VL
notes: 1B2 HC-2/1F5 LC1-1
B34: hu201 (antibody, V domains shown)
VH: B5 VH
VL: B2 VL with Q42H
notes: 3H10 HC-1/1F5 LC1-2
B35: hu110 (antibody, V domains shown)
VH: B5 VH with Y50N, H57G, R65N, M70L, R84S, S85R, K98R
VL: B2 VL with Q42H
notes: 2B8 HC1-1/1F5 LC1-2
B36: hu215 (antibody, V domains shown)
VH: B5 VH with M70L, K98R
VL: B1 VL with Y31F, L37M, N96H, F98V
notes: 3H10 HC-2/1F5 LC1-3
B37: hu107 (antibody, V domains shown)
VH: B5 VH with Y50N, H57G, R65N, M70L, R84S, S85R, K98R
VL: B2 VL with F31Y, M37L, H96N, V98F
notes: 2B8 HC1-1/1A2 LC2-3
B38: hu16 (antibody, V domains shown)
VH: B21 VH with I30T, F32Y, Y52F, D57V, V58A, Q62R, N63K, T65R, N66S
VL: B2 VL with F31Y, M37L, H96N, V98F
notes: 1B2 HC-2/1A2 LC2-3
B39: hu197 (antibody, V domains shown)
VH: B5 VH
VL: B1 VL
notes: 3H10 HC-1/1A2 LC2-2
B40: hu96 (antibody, V domains shown)
VH: B1 VH with T24A, I51V, S52Y, A56G, T58S, F66S
VL: B2 VL
notes: 2A2 HC-1/1F5 LC1-1
B41: hu44 (antibody, V domains shown)
VH: B21 VH with I30T
VL: B2 VL
notes: 1F5 HC-2/1F5 LC1-1
B42: hu123 (antibody, V domains shown)
VH: B5 VH with Y50N, H57G, R65N, M70L, K98R
VL: B2 VL with Q42H
notes: 2B8 HC1-2/1F5 LC1-2
B43: hu120 (antibody, V domains shown)
VH: B5 VH with Y50N, H57G, R65N, M70L, K98R
VL: B2 VL with F31Y, M37L, H96N, V98F
notes: 2B8 HC1-2/1A2 LC2-3

Target: T1, Biotin-huCGRPaSA (human, not fully specified; biotin (position not given))
T1 construct: exact construct ('aSA') not explained; also called Biotin CGRPaSA; full-length (1-37) CGRP
T1 peptide: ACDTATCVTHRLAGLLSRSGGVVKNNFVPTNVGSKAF
Experiment: ELISA, supernatant; relative to chimeric C245
In short: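 Plates coated with biotin-CGRPaSA at 1.0 μg/mL (90 min, 37°C) and blocked with 2% BSA. Humanized antibodies and chimeric C245 reference, 2.5-fold serial dilutions from 1000 ng/mL, bound 60 min at 37°C. Detection by HRP anti-human IgG (Fc), TMB 15 min, read at 450/620 nm.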

Binder	Relative binding activity, % [%]
B1	23
B2	38
B3	100
B4	67
B5	90
B6	55
B7	82
B8	98
B9	93
B10	84
B11	78
B12	18
B13	88
B14	102
B15	26
B16	41
B17	39
B18	64
B19	81
B20	97
B21	79
B22	78

Binder	Relative binding activity, % [%]
B23	81
B24	46
B25	54
B26	82
B27	73
B28	43
B29	91
B30	45
B31	88
B32	94
B33	67
B34	67
B35	85
B36	94
B37	73
B38	39
B39	49
B40	82
B41	99
B42	96
B43	28
